Laboratory results from article PMC12142464, “High-light-inducible proteins control associations between chlorophyll synthase and the Photosystem II biogenesis factor Ycf39” (Plant Physiology, 2025).
“And” between values parts separate entries of the source, which are not always exact repeats. Equal entries are not always repeated.

T1: 3xFLAG-tagged chlorophyll synthase ChlG (Synechocystis sp. PCC 6803, UniProt Q55145 1-324)
T1 construct: Chlorophyll synthase ChlG, Synechocystis sp; PCC 6803, made instead of the native enzyme; Isolated complexes carry chlorophyll and carotenoids; also called f.ChlG; FLAG-tagged ChlG
T1 sequence (looked up): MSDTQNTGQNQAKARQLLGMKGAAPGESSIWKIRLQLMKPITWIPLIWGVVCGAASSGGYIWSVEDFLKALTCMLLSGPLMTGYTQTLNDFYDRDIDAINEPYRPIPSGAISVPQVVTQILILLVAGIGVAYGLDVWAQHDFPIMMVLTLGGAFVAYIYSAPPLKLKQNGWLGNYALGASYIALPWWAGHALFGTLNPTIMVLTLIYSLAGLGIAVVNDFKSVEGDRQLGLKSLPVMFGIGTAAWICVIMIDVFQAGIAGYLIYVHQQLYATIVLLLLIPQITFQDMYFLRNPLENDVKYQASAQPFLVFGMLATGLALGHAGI

B1: High-light-inducible protein D (native) (natural protein, UniProt P72932 1-57, looked up)
chain: MSEELQPNQTPVQEDPKFGFNNYAEKLNGRAAMVGFLLILVIEYFTNQGVLAWLGLR
notes: High-light-inducible protein HliD (6.5 kDa), Synechocystis sp; PCC 6803; also called HliD; ScpE; source: endogenous, Synechocystis solubilised membranes

Key:
Conditions in all cases: partners not purified
[1] = target: T1, 3xFLAG-tagged chlorophyll synthase ChlG; experiment: co-IP; f.ChlG isolated with anti-FLAG resin from membranes solubilised with 1% n-dodecyl-β-D-maltoside and 1% glycol-diosgenin; eluate resolved by 2D CN (A8-35 amphipol)/SDS-PAGE, CBB stain; strains f.chlG/ΔchlG (HL 2 h), f.chlG/ΔchlG/ΔhliC (HL 2 h), f.chlG/ΔchlG/ΔhliC/Δycf39 (NL)
[2] = target: T1, 3xFLAG-tagged chlorophyll synthase ChlG; experiment: affinity purification with mass spectrometry; f.ChlG anti-FLAG pulldown from f.chlG/ΔchlG/ΔhliC cells grown under NL; quantitative MS with ^15N-labeled internal standard
[3] = target: T1, 3xFLAG-tagged chlorophyll synthase ChlG; experiment: affinity purification with mass spectrometry; f.ChlG anti-FLAG pulldown from f.chlG/ΔchlG cells grown under NL; quantitative MS with ^15N-labeled internal standard
[4] = target: T1, 3xFLAG-tagged chlorophyll synthase ChlG; experiment: affinity purification with mass spectrometry; f.ChlG anti-FLAG pulldown from f.chlG/ΔchlG/ΔhliC cells, HL 16 h; quantitative MS with ^15N-labeled internal standard
[5] = target: T1, 3xFLAG-tagged chlorophyll synthase ChlG; experiment: affinity purification with mass spectrometry; f.ChlG anti-FLAG pulldown from f.chlG/ΔchlG cells, HL 16 h; quantitative MS with ^15N-labeled internal standard
[6] = target: B1; experiment: co-IP; f.ChlG isolated with anti-FLAG resin from membranes solubilised with 1% n-dodecyl-β-D-maltoside and 1% glycol-diosgenin; eluate resolved by 2D CN (A8-35 amphipol)/SDS-PAGE, CBB stain; strains f.chlG/ΔchlG (HL 2 h), f.chlG/ΔchlG/ΔhliC (HL 2 h), f.chlG/ΔchlG/ΔhliC/Δycf39 (NL)

Row | Binder | stoichiometry N [1] | stoichiometry N [2] [per 1 ChlG] | stoichiometry N [3] [per 1 ChlG] | stoichiometry N [4] [per 1 ChlG] | stoichiometry N [5] [per 1 ChlG] | stoichiometry N [6] [HliC per HliD]
1 | B1 | ~1 HliD per f.ChlG (G-D2-G complex) and ~2 HliD per f.ChlG (G-D2 complex) | 1.47 | 1.54 | 1.51 | 1.12 | –
2 | MNNENSKFGFTAFAENWNGRLAMIGFSSALILELVSGQGVLHFFGIL (natural protein, UniProt P73563 1-47, looked up, High-light-inducible protein HliC (5.2 kDa), Synechocystis sp; PCC 6803; also called HliC; ScpB; source: endogenous, Synechocystis solubilised membranes (high light)) [High-light-inducible protein C (native)] | – | – | – | – | – | ~1
